B1: LOXL2 (parent)
chain: RLLRFSSQIHNNGQSDFRPKNGRH

Variants of: B1
Experiment: protein stability index of a GFP-peptide fusion (GPS, HEK-293T) (PSI 1-6); higher = more stable
Settings: c terminus: a fixed tail appended
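Note: lentivirally expressed fusions sorted by FACS into six bins by GFP to DsRed ratio, PSI derived from sequencing read proportions per bin multiplied by bin number.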

| Variant | protein stability index |
| --- | --- |
| RLLRFSVQIHNNGQSDFRPKNGRH [S7V] | 2.04 |
| RLLRFSNQIHNNGQSDFRPKNGRH [S7N] | 2.79 |
| RLLRFSEQIHNNGQSDFRPKNGRH [S7E] | 2.79 |
| RLLRFSQQIHNNGQSDFRPKNGRH [S7Q] | 2.18 |
| RLLRFSSQIHNSGQSDFRPKNGRH [N12S] | 3.25 |
| RLLRFSSQIHNTGQSDFRPKNGRH [N12T] | 2.72 |
| RLLRFSSQIHNWGQSDFRPKNGRH [N12W] | 2.55 |
| RLLRFSSQIHNVGQSDFRPKNGRH [N12V] | 2.87 |
| RLLRFSSQIHNYGQSDFRPKNGRH [N12Y] | 2.39 |
| RLLRFSSQIHNFGQSDFRPKNGRH [N12F] | 1.74 |
| RLLRFSSQIHNPGQSDFRPKNGRH [N12P] | 3.15 |
| RLLRFSSTIHNNGQSDFRPKNGRH [Q8T] | 2.67 |
| RLLRFSSGIHNNGQSDFRPKNGRH [Q8G] | 2.87 |
| RLLRFSSHIHNNGQSDFRPKNGRH [Q8H] | 2.5 |
| RLLRFSSRIHNNGQSDFRPKNGRH [Q8R] | 2.91 |
| RLLRFSSDIHNNGQSDFRPKNGRH [Q8D] | 3.81 |
| RLLRFSSSIHNNGQSDFRPKNGRH [Q8S] | 2.73 |
| RLLRFSSQIHNNGASDFRPKNGRH [Q14A] | 2.55 |
| RLLRFSSQIHNNGISDFRPKNGRH [Q14I] | 2.11 |
| RLLRFSSQIHNNGPSDFRPKNGRH [Q14P] | 2.81 |
| RLLRFSSQIHNNGHSDFRPKNGRH [Q14H] | 2.59 |
| RLLRFSSQIHNNGWSDFRPKNGRH [Q14W] | 2.06 |
| RLLRFSSQIHNNGESDFRPKNGRH [Q14E] | 3.26 |
| RLLRFSSQIHNNGCSDFRPKNGRH [Q14C] | 2.3 |

| Variant | protein stability index |
| --- | --- |
| RLLRFSSQIHNNGQNDFRPKNGRH [S15N] | 2.36 |
| RLLRFSSQIHNNGQDDFRPKNGRH [S15D] | 3.06 |
| RLLRFSSQIHNNGQMDFRPKNGRH [S15M] | 2.2 |
| RLLRFSSQIHNNGQGDFRPKNGRH [S15G] | 3.29 |
| RLLRFSSQIHNNGQVDFRPKNGRH [S15V] | 2.44 |
| RLLRFSSQIHNNGQSDFRPKNGNH [R23N] | 3.03 |
| RLLRFSSQIHNNGQSDFRPKNGEH [R23E] | 3.2 |
| RLLRFSSQIHNNGQSDFRPKNGPH [R23P] | 2.46 |
| RLLRFSSQIHNNGQSDFRPKNGWH [R23W] | 1.91 |
| RLLRFSSQIHNNGQSDFRPKNGMH [R23M] | 1.84 |
| RLLRFSSQIHNNGQSDFRPKNGVH [R23V] | 2.41 |
| RLLRFSSQIHNNGQSDFRPKNGLH [R23L] | 2.04 |
| RLLRFSSQIHNNGQSDFRPKNGRG [H24G] | 3.2 |
| RLLRFSSQIHNNGQSDFRPKNGRS [H24S] | 3 |
| RLLRFSSQIHNNGQSDFRPKNGRK [H24K] | 3.5 |
| RLLRFSSQIHNNGQSDFRPKNGRW [H24W] | 2.83 |
| RLLRFSSQIHNNGQSDFRPKNGRA [H24A] | 2.88 |
| RLLRFSSQIHNNGQSDFRPKNGRV [H24V] | 2.52 |
| RLLRFSSQIHNNGQSDFRPKNGRF [H24F] | 2.38 |
| RLLRFSSQIHNNGQSDFRPKNGRE [H24E] | 3.12 |
| RLLRFSSQIHNNGQSDFRPKNGRQ [H24Q] | 3.16 |
| RLLRFSSQIHNNGQSDFRPKNGRR [H24R] | 2.74 |
| RLLRFKSQIHNNGQSDFRPKNGRH [S6K] | 3.05 |
